Source: US20230416363A1

Target: mouse PD-1 expressed on cells (mouse) (UniProt Q02242)
Assay: cell-based or functional assay

Chain of mouse PD-1 expressed on cells (mouse) (Q02242 25-288): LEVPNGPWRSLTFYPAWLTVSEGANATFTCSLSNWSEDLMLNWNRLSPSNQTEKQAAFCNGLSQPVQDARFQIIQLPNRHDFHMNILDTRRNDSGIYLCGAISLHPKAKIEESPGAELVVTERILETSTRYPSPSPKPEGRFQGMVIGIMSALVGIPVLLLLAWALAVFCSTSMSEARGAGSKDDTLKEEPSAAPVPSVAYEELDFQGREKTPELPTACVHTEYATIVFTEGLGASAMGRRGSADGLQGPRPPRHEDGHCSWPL

IC 50, Promega assay: 5.59 µg/mL
B1: RMP1-14 (antibody, from another filing, V domains shown)
VH: EVQLQESGPGLVKPSQSLSLTCSVTGYSITSSYRWNWIRKFPGNRLEWMGYINSAGISNYNPSLKRRISITRDTSKNQFFLQVNSVTTEDAATYYCARSDNMGTTPFTYWGQGTLVTVSS
VL: DIVMTQGTLPNPVPSGESVSITCRSSKSLLYSDGKTYLNWYLQRPGQSPQLLIYWMSTRASGVSDRFSGSGSGTDFTLKISGVEAEDVGIYYCQQGLEFPTFGGGTKLELK
